This passage reports EC50 and IC50 results from patent US20260028402A1 (published 2026).

In experiment [1] the target is T1, cynomolgus monkey PD-L1 on cells (cynomolgus monkey, UniProt G7PSE7 19-290). The experiment is described as follows: FACS binding.
Experiment [2] addresses CynoCD100-His (cynomolgus monkey). The experiment is described as follows: ELISA.
Experiment [3] addresses CynoCD100-HEK293 (cynomolgus monkey). The experiment is described as follows: FACS.
Experiment [4] has as its target CynoCD100-His (cynomolgus monkey). In words: ELISA; FIG. 5C.
The target in experiment [5] is CynoCD100-HEK293 (cynomolgus monkey). The experiment is described as follows: FACS. This is another data set of the same source.
Experiment [6] concerns the target T1, cynomolgus monkey PD-L1 on cells. In words: FACS binding. This is another data set of the same source.
In experiment [7] the target is T2, HuCD100-Fc (in-house prepared) (human, UniProt Q92854 22-734, biotinylated in the Plexin binding and blocking assays (sites not given)). In words: FACS blocking; HuPlexin-B2-HEK293, FIG. 12D.
For experiment [8], the target named is T3, full-length mouse CD100 protein MusCD100 on cells (mouse, UniProt O09126 24-861).
T3 chain: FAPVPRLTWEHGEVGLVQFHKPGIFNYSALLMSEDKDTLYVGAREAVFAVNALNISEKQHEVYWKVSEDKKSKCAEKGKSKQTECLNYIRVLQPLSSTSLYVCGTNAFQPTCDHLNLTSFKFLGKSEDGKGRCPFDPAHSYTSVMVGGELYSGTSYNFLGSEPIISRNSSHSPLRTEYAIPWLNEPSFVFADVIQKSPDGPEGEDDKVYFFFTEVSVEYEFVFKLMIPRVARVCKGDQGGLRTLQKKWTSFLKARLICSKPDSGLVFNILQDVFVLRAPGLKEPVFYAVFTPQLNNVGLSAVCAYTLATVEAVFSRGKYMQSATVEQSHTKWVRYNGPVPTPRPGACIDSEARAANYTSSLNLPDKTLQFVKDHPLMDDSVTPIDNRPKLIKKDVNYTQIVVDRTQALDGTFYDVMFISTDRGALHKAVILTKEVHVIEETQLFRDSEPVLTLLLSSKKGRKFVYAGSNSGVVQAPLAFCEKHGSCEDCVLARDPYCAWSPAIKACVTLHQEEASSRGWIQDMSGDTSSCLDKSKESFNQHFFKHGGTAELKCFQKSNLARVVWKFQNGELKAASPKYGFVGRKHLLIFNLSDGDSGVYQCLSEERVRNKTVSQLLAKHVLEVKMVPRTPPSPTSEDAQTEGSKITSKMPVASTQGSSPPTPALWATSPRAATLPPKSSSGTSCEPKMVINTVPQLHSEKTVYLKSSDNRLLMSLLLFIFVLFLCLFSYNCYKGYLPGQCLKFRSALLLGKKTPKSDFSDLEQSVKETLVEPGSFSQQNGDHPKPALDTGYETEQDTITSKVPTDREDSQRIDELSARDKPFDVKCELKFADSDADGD
The experiment is described as follows: FACS.

For experiment [9], the target named is T4, full-length human CD100 protein HuCD100 on cells (human, UniProt Q92854 22-862). The experiment is described as follows: FACS.
Experiment [10] deals with T2, HuCD100-Fc (in-house prepared). In words: FACS blocking; HuPlexin-B1-HEK293, FIG. 12B.
Experiment [11] addresses T4, full-length human CD100 protein HuCD100 …. The experiment is described as follows: FACS binding; FIG. 11D.
For another experiment, the target named is T5, MusCD100-Fc (mouse, UniProt O09126 24-733, biotinylated in the Plexin binding and blocking assays (sites not given)).
T5 chain: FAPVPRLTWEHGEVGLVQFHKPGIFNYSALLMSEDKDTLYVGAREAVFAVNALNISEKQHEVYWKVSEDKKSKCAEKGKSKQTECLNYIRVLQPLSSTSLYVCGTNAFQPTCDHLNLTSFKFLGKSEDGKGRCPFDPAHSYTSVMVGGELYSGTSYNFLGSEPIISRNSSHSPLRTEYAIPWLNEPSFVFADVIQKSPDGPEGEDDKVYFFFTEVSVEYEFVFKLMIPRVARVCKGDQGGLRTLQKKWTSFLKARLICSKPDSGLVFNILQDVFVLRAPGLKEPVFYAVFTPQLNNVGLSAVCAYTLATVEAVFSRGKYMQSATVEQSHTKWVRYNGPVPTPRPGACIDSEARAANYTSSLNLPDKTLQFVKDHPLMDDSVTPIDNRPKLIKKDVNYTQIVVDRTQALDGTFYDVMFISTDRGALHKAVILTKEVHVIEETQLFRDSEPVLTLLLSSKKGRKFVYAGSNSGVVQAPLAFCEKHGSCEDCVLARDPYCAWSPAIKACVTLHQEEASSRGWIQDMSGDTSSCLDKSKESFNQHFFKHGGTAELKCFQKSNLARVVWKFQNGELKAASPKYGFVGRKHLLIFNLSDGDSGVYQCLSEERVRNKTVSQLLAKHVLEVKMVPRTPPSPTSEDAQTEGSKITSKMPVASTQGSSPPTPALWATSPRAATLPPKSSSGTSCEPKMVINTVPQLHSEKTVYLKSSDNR
In words: FACS blocking; MusPlexin-B1-HEK293, FIG. 12F.

Experiment [12] has as its target T2, HuCD100-Fc (in-house prepared). The experiment is described as follows: FACS blocking; FIG. 8B, blocking of binding to HuPlexin-B2-HEK293.
Experiment [13] has the same target. The experiment is described as follows: FACS blocking; blocking of binding to HuPlexin-B1-HEK293.
For experiment [14], the target named is CynoCD100-His (cynomolgus monkey). In words: ELISA; FIG. 5F.
Experiment [15] has as its target T3, full-length mouse CD100 protein …. The experiment is described as follows: FACS.
The target of experiment [16] is CynoCD100-HEK293 (cynomolgus monkey). The experiment is described as follows: FACS. This is another data set of the same source.
The target in experiment [17] is T6, MusCD100-His (mouse, UniProt O09126 24-733).
T6 chain: T5 chain
In words: ELISA; FIG. 5E.

The target in experiment [18] is T7, HuCD100-His (human, UniProt Q92854 22-734). In words: ELISA; FIG. 5D.
For experiment [19], the target named is T4, full-length human CD100 protein HuCD100 …. In words: FACS. This is another data set of the same source.
For experiment [20] the target is unchanged. In words: FACS; HuPBMC cells.
Experiment [21] concerns the target T7, HuCD100-His. The experiment is described as follows: ELISA.
The target of experiment [22] is T6, MusCD100-His. In words: ELISA.

Where a chain is given by its changes, count along the chain named. Read-outs that look alike come from different tables or passages of the source.

T1 sequence (G7PSE7 entry or part of it): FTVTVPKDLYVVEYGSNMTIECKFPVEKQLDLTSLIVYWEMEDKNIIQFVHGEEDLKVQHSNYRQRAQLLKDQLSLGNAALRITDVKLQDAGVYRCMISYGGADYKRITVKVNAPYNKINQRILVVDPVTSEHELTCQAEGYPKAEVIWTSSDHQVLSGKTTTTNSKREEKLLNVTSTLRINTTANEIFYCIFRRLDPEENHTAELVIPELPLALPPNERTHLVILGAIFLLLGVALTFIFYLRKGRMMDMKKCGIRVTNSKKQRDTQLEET

B1: Avelumab (antibody, V domains shown)
VH: EVQLLESGGGLVQPGGSLRLSCAASGFTFSSYIMMWVRQAPGKGLEWVSSIYPSGGITFYADTVKGRFTISRDNSKNTLYLQMNSLRAEDTAVYYCARIKLGTVTTVDYWGQGTLVTVSS
VL: QSALTQPASVSGSPGQSITISCTGTSSDVGGYNYVSWYQQHPGKAPKLMIYDVSNRPSGVSNRFSGSKSGNTASLTISGLQAEDEADYYCSSYTSSSTRVFGTGTKVTVLG
In experiment [1], B1 returned a concentration giving a half-maximal response (EC50) of 0.988 µg/mL.

B2: A9-VHH2 (antibody, V domains shown)
VH: QVQLVESGGGLVQAGGSLRLSCAASGFSLDYYAIGWFRQAPGKEREEVSCISSSGGSTDYADSVKGRFTISRAYAKVYLQMNSLRAEDTAVYYCAAGVSGSVCPPLIGAYWGQGTLVTVSS
Take B2: the EC50 in the experiment with CynoCD100-His [2] stood at 0.743 nM; with CynoCD100-HEK293 [3], 0.516 nM.

B3: A9 (antibody, V domains shown)
VH: B2 VH with R85K, A86P, L116Q
For B3, the results for the EC50 with CynoCD100-His [4], with CynoCD100-HEK293 [5] and with CynoCD100-HEK293 [3] were 0.178 nM, 0.776 nM and 0.47 nM, respectively.

B4: A9-VHH1 (antibody, V domains shown)
VH: B2 VH with A14P, R85K, A86P
For B4, the EC50 in the experiment with CynoCD100-His [2] came out at 0.169 nM; in the experiment with CynoCD100-HEK293 [3], 0.551 nM.

B5: A9-VHH3 (antibody, V domains shown)
VH: B2 VH with E44G, R45L
Consider B5, for which the EC50 with CynoCD100-His [2] came out at 1.31 nM; with CynoCD100-HEK293 [3] it was 0.835 nM.

B6: m18 (antibody, V domains shown)
VH: EVQLVESGGGLVQPGGSLRLSCAASRTDSNIHGMHWYRQAPGKGREWVGMIFIDGNTIVTDSVKGRFTISRDNAKNTLYLQMNTLRAEDTAVYYCAADSRGYGRAWGQGTTVTVSS
In experiment [6], B6 came in with an EC50 of 0.242 µg/mL.

B7: A31 (antibody, V domains shown)
VH: EVQLVESGGGLVQPEGSLRLSCAASGFPLDYYAIGWFRQAPGKEREGVSCIISGGSTKYSASVKGRFTISRDSANNTVYLQMNSLKPEDTAVYFCAVSWSCDLFPRDTYGWDAWGQGTLVTVSS
As to B7, the IC50 in experiment [7] was around 4.24 nM; in experiment [10], 0.837 nM; in the experiment with MusCD100-Fc, 9.86 nM; in experiment [12], 2.48 nM; in experiment [13], 1.06 nM. Moreover, the EC50 in experiment [8] is 1.15 nM; in [9], 0.467 nM; in experiment [11], 0.367 nM; with CynoCD100-HEK293 [5], 0.579 nM; with CynoCD100-His [14], 0.0512 nM; in experiment [15] it was 0.945 nM. Moreover, the EC50 with CynoCD100-HEK293 [16] is 0.327 nM; with MusCD100-His [17], 59.4 nM; with HuCD100-His [18], 0.0452 nM; in [19], 0.374 nM; in [20], 0.754 nM.

B8: A31-VHH1 (antibody, V domains shown)
VH: B7 VH with N75K, K86R, P87A
For the molecule B8, the figures for the IC50 (in experiment [7]; in experiment [10]; with MusCD100-Fc) were 5.43 nM, 0.8 nM and 4.84 nM, respectively. For the same molecule, the EC50 with HuCD100-His [21] worked out at 0.202 nM; in the experiment with MusCD100-His [22], 0.23 nM; in experiment [8] it was 1.78 nM; in experiment [9], 0.504 nM; in experiment [11], 0.413 nM; in the experiment with CynoCD100-His [2], 0.131 nM. In experiment [20], this molecule showed an EC50 of 0.356 nM.
